Measurements from the supplement of paper PMC9170038.

System: MS2 coat protein
Test: apparent KD of MS2 coat protein; designed switch direction (-1 OFF switch, 1 ON switch): 1; higher = weaker reporter binding
How it was run: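 Designed RNA switches sharing common flanks were transcribed on Illumina chips by stalled E. coli RNA polymerase. They were titrated with SNAP-549-labelled MS2 coat protein, from 0.7 or 1.5 nM doubling to 3 µM, in Tris-HCl pH 7.5 buffer with KCl, MgCl2, BSA, DTT, tRNA and Tween-20. Titrations ran without input, with 200 uM small-molecule ligand, or with an oligonucleotide input. The apparent KD of each design is the median over its clusters, after curve-fitting of normalised cluster fluorescence.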

[1] = Eterna round: R95, input ligand: FMN 200 uM
[2] = Eterna round: R95, input ligand: microRNA oligo, concentration not stated
[3] = Eterna round: R95, input ligand: none
[4] = input ligand: microRNA oligo, concentration not stated

UGCUAUUGUAUAUUGGUGCAAGCUUUUUGACAUGAGGAUCACCCAUGUACUCGUCAUUAGCGCAGUCCGUAGACUGC (puzzle: Sensor for hsa-mir-208a)
apparent KD of MS2 coat protein [1]: 74.2 nM | apparent KD of MS2 coat protein [2]: 15.7 nM | apparent KD of MS2 coat protein [3]: 79 nM

UGGAUCUAGGCUUGCCUGGGUCCUUGUUGACAUGAGGAUCACCCAUGUGUUUUUUUUUUGCUUUUUGUUUGUCAACA [JL A Humble Attempt mod 1] (puzzle: Sensor for hsa-mir-208a)
apparent KD of MS2 coat protein [1]: 20.8 nM | apparent KD of MS2 coat protein [2]: 13.6 nM | apparent KD of MS2 coat protein [3]: 26.1 nM

UGGCUCAGACGAGGAUAUACGUGGUCACAUGAGGAUCACCCAUGUCUCGAGCUUCGGCUCGAGGCGUAGAAGGCGUCUGAGCCA [SSNG2/6-A2] (Eterna round: R96, puzzle: Same State NG 2)
apparent KD of MS2 coat protein (input ligand: FMN 200 uM): 125 nM | apparent KD of MS2 coat protein [4]: 141 nM | apparent KD of MS2 coat protein (input ligand: none): 218 nM

UGGCUCAGACGAGGAUAUACGUGGUCACAUGAGGAUCACCCAUGUCUCGAGCUUCGGCUCGAGGCGUAGAAGGUGUCUGAGCCA [SSNG2/6-C2] (Eterna round: R96, puzzle: Same State NG 2)
apparent KD of MS2 coat protein (input ligand: FMN 200 uM): 192 nM | apparent KD of MS2 coat protein [4]: 609 nM | apparent KD of MS2 coat protein (input ligand: none): 575 nM

UGGCUCAGACGAGGAUAUAUGUAAUAACAUGAGGAUCACCCAUGUGUCGAGCUUCGGCUCGACACAUAGAAGGCGUCUGAGCCU [SSNG2/2-A3] (Eterna round: R96, puzzle: Same State NG 2)
apparent KD of MS2 coat protein (input ligand: FMN 200 uM): 12.7 nM | apparent KD of MS2 coat protein [4]: 20.2 nM | apparent KD of MS2 coat protein (input ligand: none): 33.3 nM

UGGCUCAGACGAGGAUAUAUGUCUCGAGCUUCGGCUCGAGACAUGAGGAUCACCCAUGUAAUAACAUAGAAGGUGUCUGAGCCA [SSNG2/1-C2] (Eterna round: R96, puzzle: Same State NG 2)
apparent KD of MS2 coat protein (input ligand: FMN 200 uM): 50.6 nM | apparent KD of MS2 coat protein [4]: 240 nM | apparent KD of MS2 coat protein (input ligand: none): 263 nM

UGGCUCAGACGAGGAUAUAUGUCUCGAGCUUCGGCUCGAGACAUGAGGAUCACCCAUGUAAUAACAUAGAAGGUGUCUGAGCCU [SSNG2/1-C3] (Eterna round: R96, puzzle: Same State NG 2)
apparent KD of MS2 coat protein (input ligand: FMN 200 uM): 42.9 nM | apparent KD of MS2 coat protein [4]: 226 nM | apparent KD of MS2 coat protein (input ligand: none): 388 nM

UGGCUCAGACGAGGAUAUGAUCAUGGCGCUUCGGCGCAUACAUGAGGAUCACCCAUGUAAAGUGAUCAGAAGGUGUCUGAGCCU [SSNG2/7-B3] (Eterna round: R96, puzzle: Same State NG 2)
apparent KD of MS2 coat protein (input ligand: FMN 200 uM): 11.5 nM | apparent KD of MS2 coat protein [4]: 12.4 nM | apparent KD of MS2 coat protein (input ligand: none): 14.4 nM

UGGCUCAGACUAGGAUAUGAUCAUGGCGCUUCGGCGCAUACAUGAGGAUCACCCAUGUAAAGUGAUCAGAAGGAGUCUGAGCCA [SSNG2/7-C2] (Eterna round: R96, puzzle: Same State NG 2)
apparent KD of MS2 coat protein (input ligand: FMN 200 uM): 14.5 nM | apparent KD of MS2 coat protein [4]: 11.9 nM | apparent KD of MS2 coat protein (input ligand: none): 15.8 nM

UGGCUCAGAGCAGGAUAUAUGCGAUCACAUGAGGAUCACCCAUGUCUCGAGCUUCGGCUCGAGGCAUAGAAGGGCUCUGAGCCA [SSNG2/4-B2] (Eterna round: R96, puzzle: Same State NG 2)
apparent KD of MS2 coat protein (input ligand: FMN 200 uM): 14.4 nM | apparent KD of MS2 coat protein [4]: 26.8 nM | apparent KD of MS2 coat protein (input ligand: none): 36.4 nM

UGGCUCAGAGCAGGAUAUAUGUGAUCACAUGAGGAUCACCCAUGUCUCGAGCUUCGGCUCGAGACAUAGAAGGGCUCUGAGCCU [SSNG2/3-B3] (Eterna round: R96, puzzle: Same State NG 2)
apparent KD of MS2 coat protein (input ligand: FMN 200 uM): 110 nM | apparent KD of MS2 coat protein [4]: 52.7 nM | apparent KD of MS2 coat protein (input ligand: none): 137 nM

UGGCUGAGUCGAGGAUAUUAUGGAUCCUCUAAUACAUGAGGAUCACCCAUGUAAUUAAUUAUACAUGAGAAGGUGACUCAGCCA [SSNG2/12-B2] (Eterna round: R96, puzzle: Same State NG 2)
apparent KD of MS2 coat protein (input ligand: FMN 200 uM): 463 nM | apparent KD of MS2 coat protein [4]: 52.3 nM | apparent KD of MS2 coat protein (input ligand: none): 342 nM

UGGCUGGUGAUAGGAUAUACAUGAGGAAUCCUCGUAGAAGGAUCACGACAUGAGGAUCACCCAUGUAGCCGUCCGUAGACGGCU [salish99_SSNG1_r04_005] (Eterna round: R96, puzzle: Same State NG 1)
apparent KD of MS2 coat protein (input ligand: FMN 200 uM): 493 nM | apparent KD of MS2 coat protein [4]: 198 nM | apparent KD of MS2 coat protein (input ligand: none): 551 nM

UGGCUGGUGCUAGGAUAUCCAUGAGGAAUCCUCGUAGAAGGAGCACGACAUGAGGAUCACCCAUGUAGCCGUCCGUAGACGGCU [salish99_SSNG1_r04_008] (Eterna round: R96, puzzle: Same State NG 1)
apparent KD of MS2 coat protein (input ligand: FMN 200 uM): 287 nM | apparent KD of MS2 coat protein [4]: 185 nM | apparent KD of MS2 coat protein (input ligand: none): 240 nM

UGGCUGGUGCUAGGAUAUGCAUGAGGCCUCCUCGUAGAAGGAGCACGACAUGAGGAUCACCCAUGUAGCCGUCCGUAGACGGCU [salish99_SSNG1_r04_011] (Eterna round: R96, puzzle: Same State NG 1)
apparent KD of MS2 coat protein (input ligand: FMN 200 uM): 62.7 nM | apparent KD of MS2 coat protein [4]: 50.1 nM | apparent KD of MS2 coat protein (input ligand: none): 63.3 nM

UGGUAACAUGAGGAUCACCCAUGUCAAAUGAAUCAAGGAUAUGGGAAAGGAGAAGAGAAACCAGAAGGUGAGGUUG [Altered State 1-15 - Jieux - Same State 1] (puzzle: Same State 1)
apparent KD of MS2 coat protein [1]: 108 nM | apparent KD of MS2 coat protein [2]: 205 nM | apparent KD of MS2 coat protein [3]: 167 nM

UGGUAACAUGAGGAUCACCCAUGUCAAGAGAAUCAAGGAUAUGGUAAGUAAUAAGAGAAUCUAGAAGGUGAAGUUG [Altered State 1-25 - Jieux - Same State 1] (puzzle: Same State 1)
apparent KD of MS2 coat protein [2]: 73.3 nM

UGGUACAUGGGAGGAUAUCUCAUGGAGACAUGAGGAUCACCCAUGUAGUUGGGCCGGAAACGGUGAGAGAAGGCCCAUGUACCU [JL SSNG1 3.71] (Eterna round: R96, puzzle: Same State NG 2)
apparent KD of MS2 coat protein (input ligand: FMN 200 uM): 377 nM | apparent KD of MS2 coat protein [4]: 338 nM | apparent KD of MS2 coat protein (input ligand: none): 473 nM

UGGUACAUGGGAGGAUAUGGAGUGAAGACAUGAGGAUCACCCAUGUUAUAAAUGCCGAGAGGCAACUAGAAGGCCCAUGUACCU [JL SSNG1 3.94] (Eterna round: R96, puzzle: Same State NG 2)
apparent KD of MS2 coat protein [4]: 54.3 nM

UGUACCUUCACAGGAUAUCAUGCGAAAAUUGCGUGAGAAGGGUGAAUACUGUGUUAAUAAAAGCACAUGAGGAUCACCCAUGUA [SameState NG1 #57] (Eterna round: R96, puzzle: Same State NG 1)
apparent KD of MS2 coat protein (input ligand: FMN 200 uM): 392 nM | apparent KD of MS2 coat protein [4]: 12.7 nM | apparent KD of MS2 coat protein (input ligand: none): 43.4 nM

UGUCCAGCCUGAGCUGGACAAAAGCAUGUACAUGAGGAUCACCCAUGUUCAUGUACAAGCUUUUUGCUCGUCUUAGG [salish99_208a_r3_066] (puzzle: Sensor for hsa-mir-208a)
apparent KD of MS2 coat protein [1]: 695 nM | apparent KD of MS2 coat protein [2]: 19.2 nM | apparent KD of MS2 coat protein [3]: 506 nM

UGUCCAGCCUGUGCUGGUCUUUAGCAUGUACAUGAGGAUCACCCAUGUCGUGUACAUGCUUUUUGCUCGUCUUUAAA [Photon Torp-05] (puzzle: Sensor for hsa-mir-208a)
apparent KD of MS2 coat protein [1]: 68.9 nM | apparent KD of MS2 coat protein [2]: 25.9 nM | apparent KD of MS2 coat protein [3]: 92.2 nM

UGUCCAGCCUGUGCUGGUCUUUUGCAUGUACAUGAGGAUCACCCAUGUCGUGUUCAUGCUUUUUGCUCGUCUUUAAA [Photon Torp-02] (puzzle: Sensor for hsa-mir-208a)
apparent KD of MS2 coat protein [1]: 49.7 nM | apparent KD of MS2 coat protein [2]: 17.2 nM | apparent KD of MS2 coat protein [3]: 53.5 nM

UGUUAGUAGACAGGAUAUUGAAUGUUAAGUAUUAACAUGAGGAUCACCCAUGUAUUUGAUUGGUACAAGAAGGGUCAAGUUUGU [JR_SSNG2_Sub013] (Eterna round: R96, puzzle: Same State NG 2)
apparent KD of MS2 coat protein (input ligand: FMN 200 uM): 487 nM | apparent KD of MS2 coat protein [4]: 191 nM | apparent KD of MS2 coat protein (input ligand: none): 320 nM

UGUUAUUAGACAGGAUAUUGAUUGUAAAGUUUUUACAUGAGGAUCACCCAUGUUGUUCAUUCGAACAAGAAGGGUCAAGUUUUU [JR_SSNG2_Sub018] (Eterna round: R96, puzzle: Same State NG 2)
apparent KD of MS2 coat protein (input ligand: FMN 200 uM): 153 nM | apparent KD of MS2 coat protein [4]: 35.9 nM | apparent KD of MS2 coat protein (input ligand: none): 137 nM

UGUUGUAAUACAGGAUAUCUAUUAUUUUUAUUUAGAGAAGGGUAAUCACAUGAGGAUCACCCAUGUAUAUACGAGGAAGAAGAG [JMF's solution 4] (Eterna round: R96, puzzle: Same State NG 1)
apparent KD of MS2 coat protein [4]: 126 nM

UGUUGUAUUACAGGAUAUCUAGAAUUUUUAUUUAGAGAAGGGUAUUCACAUGAGGAUCACCCAUGUAUAUACGAGGAAGUUGUG [JMF's solution 30] (Eterna round: R96, puzzle: Same State NG 1)
apparent KD of MS2 coat protein [4]: 27.9 nM

UGUUGUAUUACAGGAUAUCUAGUAUUUUGAUUUAGAGAAGGGUAUUCACAUGAGGAUCACCCAUGUAUAUACGAGGAAGUUGUG [JMF's solution 44] (Eterna round: R96, puzzle: Same State NG 1)
apparent KD of MS2 coat protein [4]: 44 nM
